Assay results reported in patent US20110269227A1 (SHARP, published 2011).
Ends that are not written are not given here. * marks the point of attachment. Biotin = O=C1N[C@H]2[C@H](CS[C@H]2CCCCC(=O)*)N1; PEG (amino-terminated) = not defined here; cellulose membrane = not defined here

T1: human adiponectin (R&D Systems) (human, UniProt Q15848 19-244)
T1 construct: Bought protein; also called ACRP30; GBP28
T1 sequence (looked up): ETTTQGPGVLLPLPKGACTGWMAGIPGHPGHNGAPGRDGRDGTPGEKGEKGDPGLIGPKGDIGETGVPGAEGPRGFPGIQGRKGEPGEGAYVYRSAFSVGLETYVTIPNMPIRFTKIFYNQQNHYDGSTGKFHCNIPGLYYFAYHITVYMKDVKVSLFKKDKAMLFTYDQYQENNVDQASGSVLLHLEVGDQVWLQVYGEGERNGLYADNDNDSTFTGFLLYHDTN


The binders below were run against T1, human adiponectin (R&D Systems) (assay: peptide spot on cellulose membrane, sandwich enzyme immunoassay with HRP-tagged anti-adiponectin antibody, fluorescence).
Method: First, a cellulose membrane was soaked in ethanol. Then, the cellulose membrane was continuously washed with phosphate buffered saline (PBS) (pH 7.4) so that ethanol contained in the cellulose membrane was replaced with PBS. In order that nonspecific binding is inhibited, the cellulose membrane was incubated overnight in a blocking solution (PBS containing 1% milk powder).
Then, the cellulose membrane was incubated for 1 hour in a blocking solution (PBS containing 1% milk powder) which contains 0.25 μg/mL human adiponectin (R&D Systems). Then, the cellulose membrane was washed with PBST (PBS containing 0.1% (v/v) Tween 20). Then, the cellulose membrane was incubated for 1 hour in a blocking solution containing […] anti-human adiponectin antibody (R&D Systems) which is tagged with HRP, and then washed with PBST five times.
After that, 100 μM fluorescent substrate (Amplex Red (Invitrogen)) containing 1 mM hydrogen peroxide was added to the cellulose membrane, and then they react with each other for 10 minutes. A fluorescent intensity in a synthesis spot was measured in such a manner that an […] wavelength of 595 nm of fluorescence from the fluorescent substrate was measured by a fluorescence imager (GE Healthcare) by exciting, with light of 540 nm, the fluorescent substrate in the synthesis spot. A bond strength of the peptide was worked out from the fluorescent intensity in the synthesis spot.

binding result	Binder
binds	LTLPLQAHHAME-{PEG (amino-terminated)-cellulose membrane} (reading uncertain, Spot-synthesised on a cellulose membrane) [peptide consisting of the amino-acid sequence represented by SEQ ID NO: 2]
binds	RFATPKHR-{PEG (amino-terminated)-cellulose membrane} (reading uncertain, Spot-synthesised on a cellulose membrane) [peptide consisting of the amino-acid sequence represented by SEQ ID NO: 9]
binds	KFATPKHR [peptide having the amino-acid sequence represented by SEQ ID NO: 19]
binds	LLHGHRPPMP-{PEG (amino-terminated)-cellulose membrane} (reading uncertain, Spot-synthesised on a cellulose membrane) [peptide consisting of the amino-acid sequence represented by SEQ ID NO: 3]
binds	IALLIMGS-{PEG (amino-terminated)-cellulose membrane} (reading uncertain, Spot-synthesised on a cellulose membrane) [peptide consisting of the amino-acid sequence represented by SEQ ID NO: 7]
binds	ILLPLRIN-{PEG (amino-terminated)-cellulose membrane} (reading uncertain, Spot-synthesised on a cellulose membrane; also called ILLPLRIN) [peptide consisting of the amino-acid sequence represented by SEQ ID NO: 15]
binds	ILTMLRPNMYF-{PEG (amino-terminated)-cellulose membrane} (reading uncertain, Spot-synthesised on a cellulose membrane) [peptide consisting of the amino-acid sequence represented by SEQ ID NO: 5]
binds	GFVKATTV-{PEG (amino-terminated)-cellulose membrane} (reading uncertain, Spot-synthesised on a cellulose membrane) [peptide consisting of the amino-acid sequence represented by SEQ ID NO: 13]
binds	RQTRAGVF-{PEG (amino-terminated)-cellulose membrane} (reading uncertain, Spot-synthesised on a cellulose membrane) [peptide consisting of the amino-acid sequence represented by SEQ ID NO: 10]
binds	APLQEKVVFG-{PEG (amino-terminated)-cellulose membrane} (reading uncertain, Spot-synthesised on a cellulose membrane) [peptide consisting of the amino-acid sequence represented by SEQ ID NO: 6]
binds	MHFTIAEG-{PEG (amino-terminated)-cellulose membrane} (reading uncertain, Spot-synthesised on a cellulose membrane) [peptide consisting of the amino-acid sequence represented by SEQ ID NO: 11]
binds	ITPIHWVK-{PEG (amino-terminated)-cellulose membrane} (reading uncertain, Spot-synthesised on a cellulose membrane) [peptide consisting of the amino-acid sequence represented by SEQ ID NO: 14]
binds	FRIHTETG-{PEG (amino-terminated)-cellulose membrane} (reading uncertain, Spot-synthesised on a cellulose membrane) [peptide consisting of the amino-acid sequence represented by SEQ ID NO: 4]
binds	MGSFVPW-{PEG (amino-terminated)-cellulose membrane} (reading uncertain, Spot-synthesised on a cellulose membrane; also called MGSFVPW) [peptide consisting of the amino-acid sequence represented by SEQ ID NO: 8]
binds	MGSFVPY-{PEG (amino-terminated)-cellulose membrane} (reading uncertain, also called MGSFVPY) [peptide having the amino-acid sequence represented by SEQ ID NO: 18]
binds	FLGLGLSGVVPT-{PEG (amino-terminated)-cellulose membrane} (reading uncertain, Spot-synthesised on a cellulose membrane) [peptide consisting of the amino-acid sequence represented by SEQ ID NO: 12]
binds	VRVLTLPL-{PEG (amino-terminated)-cellulose membrane} (reading uncertain, Spot-synthesised on a cellulose membrane) [peptide consisting of the amino-acid sequence represented by SEQ ID NO: 1]

What follows are binders tested against T1, human adiponectin (R&D Systems) (assay: adiponectin coated on microplate, 1 mM biotin-tagged peptide, HRP-streptavidin, TMB absorbance at 450 nm).
Method: 5 μg/mL adiponectin (R&D Systems) prepared with PBS was dispensed to wells of a 96-well microplate in an amount of 100 μL per well. Then, the peptides were incubated for 1 hour at 37° C. Adiponectin was thus immobilized in the wells. In order to inhibit nonspecific binding, a blocking solution (Protein-Free Blocking Buffer, PIERCE) was then added to the wells in an amount of 300 μL per well. Then, the peptides were incubated for 2 hours at room temperature. Then, the wells were washed three times with PBST (PBS containing 0.1% (v/v) Tween 20). Then, 1 mM biotin-tagged peptide was added to the wells in an amount of 100 μL per well. Then, the peptides were incubated for 1 hour at room temperature. Then, the wells were washed with PBST again.
Then, HRP-tagged streptavidin (R&D Systems) diluted with 200 parts of the blocking solution (Protein-Free Blocking Buffer, PIERCE) was added to the well in an amount of 100 μL per well. Then, the streptavidin was incubated for 1 hour at room temperature. Then, the wells were washed with PBST. Then, TMB (tetramethylbenzidine) was added to the wells in an amount of 100 μL per well so that they react with each other for 20 minutes. Then, the reaction was stopped by adding 1 M of HCL to the wells in an amount of 100 μL per well. Then, an absorbance at 450 nm was measured by use of a microplate reader (Bio-Rad).

binding result	Binder
binds	ILLPLRINK(Biotin)
binds	ITPIHWVKK(Biotin)
